These results are taken from patent publication US20090264360A1.

In this experiment the target is lamprey GnRH receptor (sea lamprey (Petromyzon marinus)). As to the kind of experiment: cell-based or functional assay.

As to “lamprey GnRH-III (from UniProt P30948 1-10) (peptide)”, the fold difference of EC50 against lamprey GnRH-I (IP and cAMP) (fold lower than lamprey GnRH-I) lay in the range of 40 to 50.
